# Laboratory results reported in patent publication US20110223178A1 (Human Genome Sciences, published 2011).
# Biological target: T1, Chemokine beta-4 (CK-β4) (human, UniProt P78556 27-96, 125I label in the CCR6 membrane binding assay (Example 5))
# T1 construct: also called CCL20; MIP-3α
# Experiment: inhibition of 125I-CK-β4 binding to CCR6 membranes by IgG1, Expt 3
# Description: (§1) The ability of anti-CK-β4 antibodies of the invention to inhibit the binding of CK-β4 to CCR6 may be tested in the following assay. This assay is performed in 96-well plates and each sample is tested in triplicate. A 1:3 serial dilution of anti-CK-β4 antibody is made starting with 200 nM solution of anti-CK-β4 antibody in binding buffer (50 mM HEPES, pH7.0, 5 mM MgCl₂, 1 mM CaCl₂, 0.5% protease free BSA, 0.033% CHAPS, 0.05% Tween 20, 0.05% sodium azide). To fifty microliters of each dilution of antibody are added 25 microliters of CCR6 membranes (40 micrograms/ml in binding buffer; available from Upstate Biotechnology, Charlottesville, Va. Catalog number 50-139M.) Lastly 25 microliters of ¹²⁵I-CK-β4 (0.8 nM in binding buffer) are added to the wells containing the mixture of antibody and membranes, making for a 100 microliter reaction volume. Total binding is measured using 50 microliters of binding buffer in lieu of 50 microliters of antibody dilution.
# (§2) The reaction is incubated for 3 hours at room temperature. The plates are harvested in a Tomtec Cell Harvester. The reaction is washed through a filtermat B (Perkin Elmer Life Sciences, Inc. Boston, Mass. product Number 1450-521) presoaked in 0.3% polyethylamine using an ice cold wash buffer (25 mM Hepes, 5 mM MgCl₂, 1 mM CaCl₂, 0.5M NaCl, and 0.05% Tween 20). The filter is then dried and radioactivity bound to the filter is measured using a Wallac MicroBeta Trilux (Perkin Elmer Life Sciences, Inc.).
# T1 sequence (P78556 27-96 limits assumed): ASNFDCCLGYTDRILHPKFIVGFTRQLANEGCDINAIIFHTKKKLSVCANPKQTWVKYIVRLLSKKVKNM
row,Binder,EC50
1,"IgG1 antibody comprising the VH and VL domains of scFv F002C08 (antibody, V domains shown, IgG1) VH: EVQLVESGAEVKKPGSSVKVSCKASGGTFSSYAISWVRQAPGQGLEWMGGIIPIFGTANYAQKFQGRVTITADESTSTAYMELSSLGSEDTAVYYCARESLTGDSELDLWGKGTLVTVSS VL: QSVLTQPPSVSAAPGQKVTISCSGSTSNIGNNYVSWYQQHPGKAPKLMIYDVSKRPSGVPDRFSGSKSGNSASLDISGLQSEDEADYYCAAWDDSLSEFLFGTGTKLTVLG",2.2 nM
2,"IgG1 antibody comprising the VH and VL domains of scFv F002D02 (antibody, V domains shown, IgG1) VH: EVQLVQSGAEVKKPGSSVKVSCKASGGTFSSYAISWVRQAPGQGLEWMGGIIPIFGTANYAQKFQGRVTITADESTSTAYMELSSLRSEDTAVYYCAREDIVGAVDGFDIWGRGTLVTVSS VL: QSVLTQPPSVSAAPGQKVTISCSGSTSNIGNNYVSWYQQHPGKAPKLMIYDVSKRPSGVPDRFSGSKSGNSASLDISGLQSEDEADYYCAAWDDSLSEFLFGTGTKLTVLG",4.5 nM
3,"IgG1 antibody comprising the VH and VL domains of scFv F003A09 (antibody, V domains shown, Whole IgG1) VH: QVQLVQSGAEVKKAGSSVKVSCKASGDTFSNFAISWVRQAPGHGLEWVGGIIPVFNTADYAQNFTDRVTISADKATKTVYMELRSLRSDDTAVYFCARTKIELDNDAFDIWGQGTLVTVSS VL: not shown",0.46 nM
4,"IgG1 antibody comprising the VH and VL domains of scFv F003F01 (antibody, V domains shown, IgG1; The printed VL start (142) looks late against the printed VL CDR1 (159-171)) VH: EVQLVQSGAEVRKPASSVKVSCKTSGGSFNDYSFNWVRQAPGQGLEWMGSIIPVFDMADYGQNFQGRLTITADESTTTAYMELSDLTPMDTAIYYCARVAMVGATHFDIWGQGTLVTVSS VL: QSVLTQPPSASGTPGQRVTISCSGGSSNIGSNPVNWYQQVPGTAPKLLIYLSDQRPAGVPDRFSGSKSGTSASLAISGLQSEDEADYYCSTWDDSLNDPVVFGGGTKVTVLG",0.13 nM

# Next, values leading:
row,EC50,Binder
1,1.8 nM,"IgG1 antibody comprising the VH and VL domains of scFv F076C06 (antibody, V domains shown, IgG1) VH: QVQLVQSGPEVKKPGSSVKVSCRASGGTFSTYAFSWVRQAPGQGLEWMGGIIPVFETPIYAQKLQGRLTITADTSTDTAYMELSNLRSGDTAVYYCAREWGDYYSSVSSGALHYWGRGTLVTVSS VL: QAVLTQPSSASGTPGQRVTISCSGSSSNIGNNAVNWYQQLPGTAPKLLIYNNNQWPSGVPDRFSGSKSGTSASLAVSGLQSEDEADYYCAAWDDSLNGYVFGTGTQLTVLS"
2,1.7 nM,"IgG1 antibody comprising the VH and VL domains of scFv F076G06 (antibody, V domains shown, IgG1) VH: QMQLVQSGAEVRKPGSSVKVSCKASGDTFNNFAISWVRQAPGHGLEWVGGIIPVFNTADYAQNFTGRVTISADKATKTVYMELRSLRYDDTAVYFCARTKIELDNDAFDIWGQGTMVTVSS VL: not shown"

# Biological target: T1, Chemokine beta-4 (CK-β4)
# Experiment: inhibition of 125I-CK-β4 binding to CCR6 membranes by IgG1, Expt 2
# Description: as §1, §2
row,EC50,Binder
1,0.09 nM,"IgG1 antibody comprising the VH and VL domains of scFv F081C09 (antibody, V domains shown, Whole IgG1; also called F0081C09) VH: QVQLVQSGAEVKKPGSSVRVSCKASGGSFSDYAIHWVRQAPGQGLEWMGGIIPIFGTANYAQKFQGRVTITADESTSTAYMELSSLRSEDTAVYYCAREAQYDDAFDIWGQRTMVTVSS VL: QSVLTQPPSVSAAPGQKVTISCSGSTSNIGNNYVSWYQQHPGKAPKLMIYDVSKRPSGVPDRFSGSKSGNSASLDISGLQSEDEADYYCAAWDDSLSEFLFGTGTKLTVLG"
2,2.4 nM,"IgG1 antibody comprising the VH and VL domains of scFv F003F09 (antibody, V domains shown, Whole IgG1) VH: EVQLVQSGAEVRKPGSSVKVSCKASGDTFNNFAISWVRQAPGHGLEWVGGIIPVFNTADYAQNFTGRVTISADKATKTVYMELRSLRYDDTAVYFCARTKIELDNDAFDIWGRGTTVTVSS VL: LPVLTQPPSASGTPGQRVTISCSGSTSNIGSNAVVWYQQLPGAAPKLLIYSNDQRPSGVPDRFSGSRSGTSASLAISGLQSEDEADYYCAAWDDSRDGPWVFGGGTKVTVLG"
3,0.49 nM,"IgG1 antibody comprising the VH and VL domains of scFv F076F10 (antibody, V domains shown, Whole IgG1; also called F0076F10) VH: EVQLVQSGAEVKKPGSSVKVFCKTSGGTFSSYAFGWVRQRPGQGLEWMGGIIPNFDAANYAQKFQDTVAFTADTSTNTLYLELSSLTSDDTAVYYCAREVGVHASGLGAFDIWGRGTLVTVSS VL: QSVLTQPPSVSGAPRQRVTISCSGSSSNIGDNVVNWYQQLPGKAPKLLIYYDDLLPSGVSDRFSGSKSGTSASLAISGLQSEDEADYFCAAWDDSLDAYVFGTRTKVTVLG"

# Biological target: T1, Chemokine beta-4 (CK-β4)
# Experiment: inhibition of 125I-CK-β4 binding to CCR6 membranes by IgG1, Expt 1
# Description: as §1, §2
row,EC50,Binder
1,0.3 nM,"IgG1 antibody comprising the VH and VL domains of scFv F003A09 (antibody, V domains shown, Whole IgG1) VH: QVQLVQSGAEVKKAGSSVKVSCKASGDTFSNFAISWVRQAPGHGLEWVGGIIPVFNTADYAQNFTDRVTISADKATKTVYMELRSLRSDDTAVYFCARTKIELDNDAFDIWGQGTLVTVSS VL: not shown"
2,0.2 nM,"IgG1 antibody comprising the VH and VL domains of scFv F003F01 (antibody, V domains shown, IgG1; The printed VL start (142) looks late against the printed VL CDR1 (159-171)) VH: EVQLVQSGAEVRKPASSVKVSCKTSGGSFNDYSFNWVRQAPGQGLEWMGSIIPVFDMADYGQNFQGRLTITADESTTTAYMELSDLTPMDTAIYYCARVAMVGATHFDIWGQGTLVTVSS VL: QSVLTQPPSASGTPGQRVTISCSGGSSNIGSNPVNWYQQVPGTAPKLLIYLSDQRPAGVPDRFSGSKSGTSASLAISGLQSEDEADYYCSTWDDSLNDPVVFGGGTKVTVLG"
3,4.1 nM,"IgG1 antibody comprising the VH and VL domains of scFv F002G03 (antibody, V domains shown, Whole IgG1) VH: QVQLVQSGAEVKKPGSSVKVSCKASGGTFNRYAISWVRQAPGQGLEWMGGIIPMFATPIYSQKFQDRVTITADESTSTAYMELSSLRSEDTAVYYCARDRTDYYDTDGYQSPDSWGKGTLVTVSS VL: DIQMTQSPSTLSASIGDRVTITCRASQGINNYLAWYQQKPGRAPKLLIYAASSLQSGVPSRFSGSGSGTDFTLTISSLQPEDFATYYCLQDSDYPLTFGGGTKLEIKR"
